Experimental data from patent publication US20050136043A1, “TGFbeta signaling inhibitors” (Ludwig Institute for Cancer Research, priority 2003, published 2005).
No end group written: not given here.

Target: GST-TβR-I (GST fused to the cytoplasmic part, residues 148-503, of constitutively active TβR-I T204D, FLAG-tagged at the C-terminus), P36897
Experiment: cell-based or functional assay

GST-TβR-I (GST fused to the cytoplasmic part, residues 148-503, of constitutively active TβR-I T204D, FLAG-tagged at the C-terminus), P36897, sequence (P36897 148-503 T204D, form in doubt): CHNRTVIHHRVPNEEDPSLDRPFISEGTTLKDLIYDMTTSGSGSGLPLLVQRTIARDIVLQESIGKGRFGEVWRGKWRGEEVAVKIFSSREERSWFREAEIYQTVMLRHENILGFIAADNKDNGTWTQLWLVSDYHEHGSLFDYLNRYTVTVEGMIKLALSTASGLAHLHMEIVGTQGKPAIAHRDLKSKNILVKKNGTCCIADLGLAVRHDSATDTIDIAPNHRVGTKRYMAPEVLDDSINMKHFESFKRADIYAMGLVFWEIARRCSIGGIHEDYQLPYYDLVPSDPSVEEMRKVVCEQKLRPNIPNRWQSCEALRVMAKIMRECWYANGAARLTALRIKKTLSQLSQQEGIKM

B1: antp-Sm2A peptide (penetratin fused to the C-terminus of Smad2 with the two phosphorylatable serines changed to alanine) (peptide)
peptide: RQIKIWFQNRRMKWKKTQMGSPSVRCSAMA-OH
B1 showed a peptide concentration at which the effect was observed, in vitro kinase assay of 10 µM and a peptide concentration of maximal inhibition, in vitro kinase assay of 200 µM.

B2: antp-Sm2S peptide (penetratin fused to the C-terminus of wild-type Smad2) (peptide)
peptide: RQIKIWFQNRRMKWKKTQMGSPSVRCSSMS-OH
For B2, the peptide concentration at which the effect was observed, in vitro kinase assay was 10 µM and the peptide concentration of maximal inhibition, in vitro kinase assay was 200 µM.
